# From patent US20230313187A1, “MODIFICATIONS OF MAMMALIAN CELLS USING ARTIFICIAL MICRO-RNA TO ALTER THEIR PROPERTIES AND THE COMPOSITIONS OF THEIR PRODUCTS” (DNA TWOPOINTO INC., priority 2020, published 2023)
# B1: SEQ ID NO: 568: three-hairpin amiRNA, guides SEQ ID NOs 92, 91, 90 complementary to Cricetulus griseus Neu2 mRNA (nucleic acid)
# chain: ATCTGATCTTCTGAAGAAAATATATTTCTTTTTATTCATAGCTCTTAACTAGTGGTGATAGCAATGTCAGCAGTGCCTATGAAGTCTATGAAGAGTCAGGGTGAAGCCACAGATGCCTGACTCTTAATAGACTTCACAAGTAAGGTTGACCATACTCTACTCTAGAGTTGTGTTTTAATGTATATTAATGTTACTAATGTGTTTACTAGTGGTGATAGCAATGTCAGCAGTGCCTTACAAGTTTACTCACTACCTGGGTGAAGCCACAGATGCCAGGTAGTGCGTAAACTTGTCAAGTAAGGTTGACCATACTCTACTCTAGGTTATTTTTAGTATGATTCTGTAAAAATGAATTAATACTAACTAGTGGTGATAGCAATGTCAGCAGTGCCTTAATTTATTAAGACTCATCCAAGTGAAGCCACAGATGTTGGATGAGTATTAATAAATTCAAGTAAGGTTGACCATACTCTACTCTAGTCAGTTTTATTGATAGTCTTTTCAGTATTATTGATAATCTT
# B2: SEQ ID NO: 194: three-hairpin amiRNA, guides SEQ ID NOs 23, 24, 25 to Cricetulus griseus FUT8 mRNA, unstructured sequences between hairpins (nucleic acid)
# chain: ATCTGATCTTCTGAAGAAAATATATTTCTTTTTATTCATAGCTCTTAACTAGTGGTGATAGCAATGTCAGCAGTGCCTGGAAAAACATCCATTCTCATTCGTGAAGCCACAGATGGAATGAGAATAGATGTTTTTCAAAGTAAGGTTGACCATACTCTACTCTAGTTATATTCTTTAGGCACGAATGTGTGTTTAAAAAAAATAAAAACTAGTGGTGATAGCAATGTCAGCAGTGCCTTTAAATTACATAATGTGGCAGTGTGAAGCCACAGATGACTGCCACATCATGTAATTTACAAGTAAGGTTGACCATACTCTACTCTAGAGTTGTGTTTTAATGTATATTAATGTTACTAATGTGTTTACTAGTGGTGATAGCAATGTCAGCAGTGCCTTATTTTACTGTGCATGGGCTTGGTGAAGCCACAGATGCAAGCCCATGAACAGTAAAATCAAGTAAGGTTGACCATACTCTACTCTAGTCAGTTTTATTGATAGTCTTTTCAGTATTATTGATAATCTT
# How the values were obtained:
# Format in all cases: cell-based
# [1] = tested on: Cricetulus griseus Neu2 mRNA; experiment: Sialylation of an Fc fusion protein from CHO cells with Neu2-targeting amiRNA (capillary isoelectric focusing); conditions: 14 day fed-batch; Fc fusion to a growth factor receptor; FIG. 6B vs reference standard
# Description: The multi-hairpin amiRNA was cloned into a piggyBac-like transposon to the 3′ of a spacer polynucleotide with nucleotide sequence SEQ ID NO: 280, and operably linked to a PGK promoter with nucleotide sequence SEQ ID NO: 385. The nucleotide sequence of the multi-hairpin amiRNA gene is given as SEQ ID NO: 593. The piggyBac-like transposon further comprised a selectable marker conferring resistance to puromycin with amino acid sequence SEQ ID NO: 302. The piggyBac-like transposon further comprised a target sequence 5′-TTAA-3′ immediately followed by an ITR with nucleotide sequence SEQ ID NO: 427, immediately followed by further transposon end sequences with nucleotide sequence SEQ ID NO: 425. The piggyBac-like transposon further comprised nucleotide sequence SEQ ID NO: 426, immediately followed by a second ITR with nucleotide sequence SEQ ID NO: 428, immediately followed by the target sequence 5′-TTAA-3′. […]
# After the transfected cell pools had recovered to >95% viability, we tested their ability to produce sialylated protein. […] Protein was purified from the culture supernatant using protein A affinity chromatography, reduced with dithiothreitol, and analyzed by capillary isoelectric focusing (cIEF). […]
# [2] = tested on: Cricetulus griseus alpha-(1,6)-fucosyl transferase (FUT8) mRNA; experiment: CHO pool with amiRNA as host for transient production of afucosylated antibodies; conditions: 7-day transient culture; amiRNA linked to EF1 promoter; FIG. 5B
# Description: The multi-hairpin amiRNA with nucleotide sequence SEQ ID NO: 194 comprised three hairpins with guides complementary to the mRNA for Cricetulus griseus alpha-(1,6)-fucosyl transferase (FUT8), as described in Section 6.1.1.1. The multi-hairpin amiRNA sequence was placed to the 3′ of an open reading frame encoding a red fluorescent protein (with nucleotide sequence SEQ ID NO: 279) and followed by a rabbit globin polyadenylation sequence. The multi-hairpin amiRNA gene was cloned into a Bombyx transposon vector in which it was operably linked to an EF1 promoter (with nucleotide sequence SEQ ID NO: 314). […] It further comprised an open reading frame encoding puromycin selectable marker with polypeptide sequence SEQ ID NO: 302. […]
# (§1) Transposons were co-transfected with mRNA encoding transposase with polypeptide sequence SEQ ID NO: 502 into a CHO cell line expressing no heterologous antibody sequences. […] Protein was purified from the culture supernatant using protein A affinity chromatography, reduced with dithiothreitol, and analyzed on an Agilent QTOF mass spectrometer. […]
# [3] = tested on: Cricetulus griseus alpha-(1,6)-fucosyl transferase (FUT8) mRNA; experiment: Antibody titer and fucosylation with different numbers of amiRNA hairpins in the 3' UTR of the glutamine synthetase selectable marker
# Description: One- two- or three-hairpin amiRNAs were incorporated into the 3′ UTR of a glutamine synthetase selectable marker on a transposon. The multi-hairpin amiRNA with nucleotide sequence SEQ ID NO: 194 comprised three hairpins as described in Section 6.1.1.1.
# These amiRNA sequences were placed to the 3′ of an open reading frame encoding a glutamine synthetase protein (with polypeptide sequence SEQ ID NO: 307) and followed by a human globin polyadenylation sequence. The amiRNA genes were cloned into a transposon vector in which they were operably linked to a Pol II promoter. The transposon further comprised genes encoding an antibody with mature light chain polypeptide sequence SEQ ID NO: 286 and mature heavy chain polypeptide sequence SEQ ID NO: 288. The transposon further comprised a left end comprising a 5′-TTAA-3′ target sequence immediately followed by an ITR with nucleotide sequence SEQ ID NO: 423 (which is an embodiment of SEQ ID NO: 421) and additional nucleotide sequence SEQ ID NO: 417 and a right end comprising nucleotide sequence SEQ ID NO: 419 immediately followed by an ITR with nucleotide sequence SEQ ID NO: 424 (which is an embodiment of SEQ ID NO: 422) immediately followed by a 5′-TTAA-3′ target sequence. The transposon was configured so that the multi-hairpin amiRNA, the glutamine synthetase gene and the genes for both antibody chains, as well as all necessary operably linked control elements were transposable by a corresponding transposase.
# Transposons were co-transfected with mRNA encoding transposase with polypeptide sequence SEQ ID NO: 472 into a CHO cell line with no functional glutamine synthetase gene. The pool of transfected cells were grown in the absence of glutamine added to the media until their viability reached 95%. They were then grown in a 14 day fed-batch using Sigma Advanced Fed Batch media. Protein was purified from the culture supernatant using protein A affinity chromatography, reduced with dithiothreitol, and analyzed on an Agilent QTOF mass spectrometer. We integrated the area under the peaks at 50,456 Da (corresponding to the heavy chain modified by G0: the conserved heptasaccharide core composed of 2 N-acetylglucosamine, 3 mannose and 2 other N-acetylglucosamine residues that are β-1,2 linked to α-6 mannose and α-3 mannose, forming two arms) and 50,602 (corresponding to the heavy chain modified by G0F: the conserved heptasaccharide core plus a fucose residue) to calculate the relative proportion of fucosylated and afucosylated antibody.
# Table 5. Inhibition of antibody fucosylation with different numbers of amiRNA hairpins. Transposons were constructed as described in Section 6.1.2.1. The SEQ ID NO of the amiRNA gene including the glutamine synthetase ORF and the globin polyA sequence is given in column A. The Pol II promoter shown in column B was operably linked to the amiRNA whose SEQ ID NO is shown in column C. The amiRNA comprised the number of hairpins shown in column D. Following a 14-day fed batch antibody production run, the culture supernatant contained the concentration of antibody shown in column E. The percentage of antibody that was afucosylated is shown in column F, the percentage that was fucosylated is shown in column G. BDL=below detection limit.
# [4] = tested on: Cricetulus griseus alpha-(1,6)-fucosyl transferase (FUT8) mRNA; experiment: Antibody titer and fucosylation with multi-hairpin amiRNA in the GS 3' UTR driven by different promoters and inhibitory 5' UTRs; conditions: 14 day fed-batch
# Description: The three-hairpin amiRNA with nucleotide sequence SEQ ID NO: 194 was incorporated into the 3′ UTR of a glutamine synthetase selectable marker on a transposon. The amiRNA sequence was placed to the 3′ of an open reading frame encoding a glutamine synthetase protein with polypeptide sequence SEQ ID NO: 307 and was followed by a human globin polyadenylation sequence. The amiRNA gene was cloned into different transposon vectors in which it was operably linked to different Pol II promoters. Each transposon further comprised genes encoding an antibody with mature light chain polypeptide sequence SEQ ID NO: 286 and mature heavy chain polypeptide sequence SEQ ID NO: 288. […]
# as §1, with “472” for “502”, “with” for “expressing”, “functional glutamine synthetase gene.” for “heterologous antibody sequences.”
Molecule,sialylation of the produced protein (cIEF glycoform peaks) [1],antibody fucosylation (G0F peak) [2],fucosylation of the antibody ([3]; CMV and EEF2 promoter operably linked to the amiRNA),antibody titer in the culture supernatant ([3]; CMV promoter) [mg/L],antibody titer in the culture supernatant ([3]; EEF2 promoter) [mg/L],"antibody titer ([3]; weaker (PGK) promoter operably linked to glutamine synthetase, amiRNA in 3' UTR) [mg/L]","antibody fucosylation ([3]; weaker (PGK) promoter, amiRNA in GS 3' UTR, natural level around 80-85%)",antibody fucosylation [4],antibody titer [4]
B1,substantially reduces the removal of sialic acid from proteins produced by CHO cells,,,,,,,,
B2,,produced only afucosylated antibodies,completely eliminated fucosylation of the antibody,163,443,835,completely prevented,completely suppressed,exceeded 3 g/L
